Assay results as given in IntAct's records for PubMed 20627101.

B1: Induced myeloid leukemia cell differentiation protein Mcl-1 homolog (Mus musculus), P97287 (parent)
chain: MFGLRRNAVIGLNLYCGGASLGAGGGSPAGARLVAEEAKARREGGGEAALLPGARVVARPPPVGAEDPDVTASAERRLHKSPGLLAVPPEEMAASAAAAIVSPEEELDGCEPEAIGKRPAVLPLLERVSEAAKSSGADGSLPSTPPPPEEEEDDLYRQSLEIISRYLREQATGSKDSKPLGEAGAAGRRALETLRRVGDGVQRNHETAFQGMLRKLDIKNEGDVKSFSRVMVHVFKDGVTNWGRIVTLISFGAFVAKHLKSVNQESFIEPLAETITDVLVRTKRDWLVKQRGWDGFVEFFHVQDLEGGIRNVLLAFAGVAGVGAGLAYLIR

Variants of: B1
Conditions: with ch60_human HSPD1, P10809
Chain of ch60_human HSPD1, P10809 (P10809 whole entry): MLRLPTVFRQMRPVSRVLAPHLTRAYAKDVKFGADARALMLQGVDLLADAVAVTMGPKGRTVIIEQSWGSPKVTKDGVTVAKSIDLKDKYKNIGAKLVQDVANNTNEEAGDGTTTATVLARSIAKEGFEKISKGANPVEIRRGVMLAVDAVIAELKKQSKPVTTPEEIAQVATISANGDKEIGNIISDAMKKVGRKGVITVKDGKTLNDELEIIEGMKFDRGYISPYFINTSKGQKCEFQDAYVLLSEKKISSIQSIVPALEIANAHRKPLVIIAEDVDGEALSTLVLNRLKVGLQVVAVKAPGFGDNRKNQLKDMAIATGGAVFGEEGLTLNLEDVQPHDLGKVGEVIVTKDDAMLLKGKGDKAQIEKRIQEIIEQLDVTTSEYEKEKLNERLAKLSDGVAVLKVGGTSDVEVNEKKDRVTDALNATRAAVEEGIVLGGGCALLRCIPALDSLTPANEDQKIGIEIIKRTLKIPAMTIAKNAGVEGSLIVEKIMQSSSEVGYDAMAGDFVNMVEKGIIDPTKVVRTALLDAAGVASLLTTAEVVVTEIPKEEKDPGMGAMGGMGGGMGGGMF

Row | Variant | effect of a mutation on the interaction
1 | R6G | disrupting interaction
2 | R5G | disrupting interaction
3 | R32G | disrupting interaction
